{"source": "patent US20160355836", "key": {"[1]": {"tested_on": "T1, GST-PT8-CTS512A", "T1 sequence": "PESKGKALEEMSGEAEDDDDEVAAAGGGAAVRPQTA"}, "[2]": {"tested_on": "T2, GST-PT8-CTS517 (not phosphorylated)", "T2 sequence": "T1 sequence with A7S"}, "[3]": {"tested_on": "T3, GST-PT8-CTS517A", "T3 sequence": "T1 sequence with A7S, S12A"}}, "note": "Substitutions are numbered along the chain they refer to."}
{"substance": "GST-CK2α3", "values": [{"measurement": "in vitro phosphorylation assay ([γ-32P]ATP)", "setting": "[1]", "value": "Mutation of S517, but not S512, prevented phosphorylation of PT8-CT"}, {"measurement": "in vitro phosphorylation assay ([γ-32P]ATP)", "setting": "[2]", "value": "the PT8-CT was phosphorylated by the catalytic subunit CK2 α3"}, {"measurement": "in vitro phosphorylation assay ([γ-32P]ATP)", "setting": "[3]", "value": "Mutation of S517, but not S512, prevented phosphorylation of PT8-CT"}]}
